In the test the target is biotinylated hIL-21 R (human, UniProt Q9HBE5, biotin (site not stated)). Briefly: AlphaScreen or HTRF. Background: Bead proximity is the source of the signal in Alpha formats.
Sequence of biotinylated hIL-21 R (Q9HBE5 20-232): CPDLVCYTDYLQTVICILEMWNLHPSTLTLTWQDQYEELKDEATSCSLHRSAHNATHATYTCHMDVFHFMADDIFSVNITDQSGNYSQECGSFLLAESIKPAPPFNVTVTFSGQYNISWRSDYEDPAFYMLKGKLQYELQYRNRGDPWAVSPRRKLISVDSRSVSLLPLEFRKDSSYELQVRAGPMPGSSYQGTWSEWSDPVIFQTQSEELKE

B1: europium cryptate-labeled MJ4-2 (antibody, V domains shown)
VH: EVQLVESGGGLVQPGRSLRLSCAASGVTFSDYHMAWVRQAPKKGLEWVATIIYDAARTYYRDSVKGRFTISRDNAKNSLYLQMNSLRAEDTAVYYCATWQTTGTPGWFAYWGQGTLVTVSS
VL: DIQMTQSPSSLSASVGDRVTITCGASQSVSISRFNLMHWYQQKPGHQPKLLIYRASNLASGVPSRFSGSGSGTDFTLTINPLQAEDFATYYCQQSRESPPTFGGGTKVEIK
Take B1: the binding result is reported as “binds”.

For the origin of these results see paper PMC7889167 (mAbs, 2021).
